{"source": "paper PMC3154423", "test_in_all_cases": "ITC", "key": {"[1]": {"target": "Jun bZIP R261A;Fos bZIP R157A (human;human, UniProt P05412;P01100 252-315;137-200, R261A|R157A)", "sequence (P05412 252-315 R261A, chain 1 of 2)": "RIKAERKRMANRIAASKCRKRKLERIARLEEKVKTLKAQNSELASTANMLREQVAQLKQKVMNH", "sequence (P01100 137-200 R157A, chain 2 of 2)": "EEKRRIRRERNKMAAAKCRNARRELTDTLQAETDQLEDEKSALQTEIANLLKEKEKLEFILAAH"}, "[2]": {"target": "Jun bZIP K258A;Fos bZIP R146A (human;human, UniProt P05412;P01100 252-315;137-200, K258A|R146A)", "sequence (P05412 252-315 K258A, chain 1 of 2)": "as the sequence (P05412 252-315 R261A, chain 1 of 2) above, with K7A, A10R counted along it", "sequence (P01100 137-200 R146A, chain 2 of 2)": "as the sequence (P01100 137-200 R157A, chain 2 of 2) above, with R10A, A21R counted along it"}, "[3]": {"target": "Jun bZIP R270A;Fos bZIP R158A (human;human, UniProt P05412;P01100 252-315;137-200, R270A|R158A)", "sequence (P05412 252-315 R270A, chain 1 of 2)": "as the sequence (P05412 252-315 R261A, chain 1 of 2) above, with A10R, R19A counted along it", "sequence (P01100 137-200 R158A, chain 2 of 2)": "as the sequence (P01100 137-200 R157A, chain 2 of 2) above, with A21R, R22A counted along it"}, "[4]": {"target": "Jun bZIP K273A;Fos bZIP R155A (human;human, UniProt P05412;P01100 252-315;137-200, K273A|R155A)", "sequence (P05412 252-315 K273A, chain 1 of 2)": "as the sequence (P05412 252-315 R261A, chain 1 of 2) above, with A10R, K22A counted along it", "sequence (P01100 137-200 R155A, chain 2 of 2)": "as the sequence (P01100 137-200 R157A, chain 2 of 2) above, with R19A, A21R counted along it"}, "[5]": {"target": "Jun bZIP R259A;Fos bZIP R144A (human;human, UniProt P05412;P01100 252-315;137-200, R259A|R144A)", "sequence (P05412 252-315 R259A, chain 1 of 2)": "as the sequence (P05412 252-315 R261A, chain 1 of 2) above, with R8A, A10R counted along it", "sequence (P01100 137-200 R144A, chain 2 of 2)": "as the sequence (P01100 137-200 R157A, chain 2 of 2) above, with R8A, A21R counted along it"}, "[6]": {"target": "Jun bZIP R261A;Fos bZIP R146A (human;human, UniProt P05412;P01100 252-315;137-200, R261A|R146A)", "sequence (P05412 252-315 R261A, chain 1 of 2)": "as the sequence (P05412 252-315 R261A, chain 1 of 2) above", "sequence (P01100 137-200 R146A, chain 2 of 2)": "as the sequence (P01100 137-200 R157A, chain 2 of 2) above, with R10A, A21R counted along it"}, "[7]": {"target": "Jun bZIP K273A;Fos bZIP K153A (human;human, UniProt P05412;P01100 252-315;137-200, K273A|K153A)", "sequence (P05412 252-315 K273A, chain 1 of 2)": "as the sequence (P05412 252-315 R261A, chain 1 of 2) above, with A10R, K22A counted along it", "sequence (P01100 137-200 K153A, chain 2 of 2)": "as the sequence (P01100 137-200 R157A, chain 2 of 2) above, with K17A, A21R counted along it"}, "[8]": {"target": "Jun bZIP R259A;Fos bZIP K153A (human;human, UniProt P05412;P01100 252-315;137-200, R259A|K153A)", "sequence (P05412 252-315 R259A, chain 1 of 2)": "as the sequence (P05412 252-315 R261A, chain 1 of 2) above, with R8A, A10R counted along it", "sequence (P01100 137-200 K153A, chain 2 of 2)": "as the sequence (P01100 137-200 R157A, chain 2 of 2) above, with K17A, A21R counted along it"}, "[9]": {"target": "Jun bZIP K273A;Fos bZIP K148A (human;human, UniProt P05412;P01100 252-315;137-200, K273A|K148A)", "sequence (P05412 252-315 K273A, chain 1 of 2)": "as the sequence (P05412 252-315 R261A, chain 1 of 2) above, with A10R, K22A counted along it", "sequence (P01100 137-200 K148A, chain 2 of 2)": "as the sequence (P01100 137-200 R157A, chain 2 of 2) above, with K12A, A21R counted along it"}, "[10]": {"target": "Jun bZIP K268A;Fos bZIP K148A (human;human, UniProt P05412;P01100 252-315;137-200, K268A|K148A)", "sequence (P05412 252-315 K268A, chain 1 of 2)": "as the sequence (P05412 252-315 R261A, chain 1 of 2) above, with A10R, K17A counted along it", "sequence (P01100 137-200 K148A, chain 2 of 2)": "as the sequence (P01100 137-200 R157A, chain 2 of 2) above, with K12A, A21R counted along it"}, "[11]": {"target": "Jun bZIP R263A;Fos bZIP R155A (human;human, UniProt P05412;P01100 252-315;137-200, R263A|R155A)", "sequence (P05412 252-315 R263A, chain 1 of 2)": "as the sequence (P05412 252-315 R261A, chain 1 of 2) above, with A10R, R12A counted along it", "sequence (P01100 137-200 R155A, chain 2 of 2)": "as the sequence (P01100 137-200 R157A, chain 2 of 2) above, with R19A, A21R counted along it"}, "[12]": {"target": "Jun bZIP R270A;Fos bZIP R144A (human;human, UniProt P05412;P01100 252-315;137-200, R270A|R144A)", "sequence (P05412 252-315 R270A, chain 1 of 2)": "as the sequence (P05412 252-315 R261A, chain 1 of 2) above, with A10R, R19A counted along it", "sequence (P01100 137-200 R144A, chain 2 of 2)": "as the sequence (P01100 137-200 R157A, chain 2 of 2) above, with R8A, A21R counted along it"}, "[13]": {"target": "Jun bZIP R259A;Fos bZIP R158A (human;human, UniProt P05412;P01100 252-315;137-200, R259A|R158A)", "sequence (P05412 252-315 R259A, chain 1 of 2)": "as the sequence (P05412 252-315 R261A, chain 1 of 2) above, with R8A, A10R counted along it", "sequence (P01100 137-200 R158A, chain 2 of 2)": "as the sequence (P01100 137-200 R157A, chain 2 of 2) above, with A21R, R22A counted along it"}, "[14]": {"target": "Jun bZIP K268A;Fos bZIP R158A (human;human, UniProt P05412;P01100 252-315;137-200, K268A|R158A)", "sequence (P05412 252-315 K268A, chain 1 of 2)": "as the sequence (P05412 252-315 R261A, chain 1 of 2) above, with A10R, K17A counted along it", "sequence (P01100 137-200 R158A, chain 2 of 2)": "as the sequence (P01100 137-200 R157A, chain 2 of 2) above, with A21R, R22A counted along it"}, "[15]": {"target": "Jun bZIP R259A;Fos bZIP R155A (human;human, UniProt P05412;P01100 252-315;137-200, R259A|R155A)", "sequence (P05412 252-315 R259A, chain 1 of 2)": "as the sequence (P05412 252-315 R261A, chain 1 of 2) above, with R8A, A10R counted along it", "sequence (P01100 137-200 R155A, chain 2 of 2)": "as the sequence (P01100 137-200 R157A, chain 2 of 2) above, with R19A, A21R counted along it"}, "[16]": {"target": "Jun bZIP K258A;Fos bZIP K148A (human;human, UniProt P05412;P01100 252-315;137-200, K258A|K148A)", "sequence (P05412 252-315 K258A, chain 1 of 2)": "as the sequence (P05412 252-315 R261A, chain 1 of 2) above, with K7A, A10R counted along it", "sequence (P01100 137-200 K148A, chain 2 of 2)": "as the sequence (P01100 137-200 R157A, chain 2 of 2) above, with K12A, A21R counted along it"}}}
{"binder": "TRE duplex 15-mer (dsDNA) DNA 1: CGCGTGACTCACCCC DNA 2: GGGGTGAGTCACGCG", "values": [{"measurement": "Kd", "setting": "[1]", "value": "0.89 ± 0.03", "unit": "µM"}, {"measurement": "Kd", "setting": "[2]", "value": "0.66 ± 0.01", "unit": "µM"}, {"measurement": "Kd", "setting": "[3]", "value": "1.54 ± 0.05", "unit": "µM"}, {"measurement": "Kd", "setting": "[4]", "value": "6.79 ± 0.42", "unit": "µM"}, {"measurement": "Kd", "setting": "[5]", "value": "15.8 ± 0.62", "unit": "µM"}, {"measurement": "Kd", "setting": "[6]", "value": "1.03 ± 0.02", "unit": "µM"}, {"measurement": "Kd", "setting": "[7]", "value": "0.84 ± 0.05", "unit": "µM"}, {"measurement": "Kd", "setting": "[8]", "value": "1.72 ± 0.15", "unit": "µM"}, {"measurement": "Kd", "setting": "[9]", "value": "0.76 ± 0.01", "unit": "µM"}, {"measurement": "Kd", "setting": "[10]", "value": "0.46 ± 0.02", "unit": "µM"}, {"measurement": "Kd", "setting": "[11]", "value": "3.88 ± 0.09", "unit": "µM"}, {"measurement": "Kd", "setting": "[12]", "value": "6.7 ± 0.41", "unit": "µM"}, {"measurement": "Kd", "setting": "[13]", "value": "2.16 ± 0.13", "unit": "µM"}, {"measurement": "Kd", "setting": "[14]", "value": "0.43 ± 0.02", "unit": "µM"}, {"measurement": "Kd", "setting": "[15]", "value": "5.75 ± 0.09", "unit": "µM"}, {"measurement": "Kd", "setting": "[16]", "value": "0.66 ± 0.02", "unit": "µM"}]}
